Here are results for 7 molecules from patent EP4782464A1 (Nanjing Legend Biotech Co., Ltd., dated 2026).

Assay [1] concerns the target mouse GCC (guanylyl cyclase C, GUCY2C) on cells (mouse) (UniProt Q3UWA6). Kind of assay: flow cytometry, B cell clone supernatant on Dubca-mouse GCC.Luc cells. (In general: Flow cytometry measures light scatter and fluorescence of single cells or particles in a stream.)
Assay [2] deals with T1, human GCC (guanylyl cyclase C, GUCY2C) on cells (human, UniProt P25092 24-1073).
T1 construct: whole, on cells; also called Dubca-human GCC.Luc
T1 sequence (P25092 24-1073): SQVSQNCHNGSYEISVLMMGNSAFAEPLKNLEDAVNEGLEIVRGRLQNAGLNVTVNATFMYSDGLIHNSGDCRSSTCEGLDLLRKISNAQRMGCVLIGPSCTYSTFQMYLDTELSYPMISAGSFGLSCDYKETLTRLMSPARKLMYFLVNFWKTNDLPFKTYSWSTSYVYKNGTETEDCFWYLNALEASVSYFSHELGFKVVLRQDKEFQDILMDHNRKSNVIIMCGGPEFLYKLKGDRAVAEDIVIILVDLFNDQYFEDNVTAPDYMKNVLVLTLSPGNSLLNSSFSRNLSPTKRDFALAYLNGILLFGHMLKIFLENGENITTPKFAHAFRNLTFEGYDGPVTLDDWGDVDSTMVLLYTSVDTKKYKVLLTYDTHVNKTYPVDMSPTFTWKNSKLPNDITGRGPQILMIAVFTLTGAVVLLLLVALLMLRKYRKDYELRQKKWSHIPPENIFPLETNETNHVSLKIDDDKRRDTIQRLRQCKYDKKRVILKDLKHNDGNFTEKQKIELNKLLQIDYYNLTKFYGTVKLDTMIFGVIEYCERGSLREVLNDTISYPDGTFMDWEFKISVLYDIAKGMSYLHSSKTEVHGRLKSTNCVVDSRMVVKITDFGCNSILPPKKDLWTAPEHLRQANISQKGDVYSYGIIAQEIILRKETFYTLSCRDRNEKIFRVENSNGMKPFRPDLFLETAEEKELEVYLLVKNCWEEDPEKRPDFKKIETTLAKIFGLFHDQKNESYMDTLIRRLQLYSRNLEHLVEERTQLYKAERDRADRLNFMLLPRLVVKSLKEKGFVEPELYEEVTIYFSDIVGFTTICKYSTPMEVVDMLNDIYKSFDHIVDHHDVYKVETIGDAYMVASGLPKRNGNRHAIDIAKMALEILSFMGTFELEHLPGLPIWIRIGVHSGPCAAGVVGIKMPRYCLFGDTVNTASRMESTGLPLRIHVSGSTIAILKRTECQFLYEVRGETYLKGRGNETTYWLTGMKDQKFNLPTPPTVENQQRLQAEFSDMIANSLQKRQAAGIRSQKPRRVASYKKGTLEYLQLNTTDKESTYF
The assay can be described thus: flow cytometry, B cell clone supernatant on Dubca-human GCC.Luc cells.

Assay [3] addresses human GCC (guanylyl cyclase C, GUCY2C) on cells (human) (UniProt P25092). Described as above.
The target of assay [4] is T1, human GCC (guanylyl cyclase C, GUCY2C) …. Kind of assay: flow cytometry on 293T-human GCC.Luc cells.
Assay [5] deals with T2, mouse GCC (guanylyl cyclase C, GUCY2C) on cells (mouse, UniProt Q3UWA6 20-1072).
T2 construct: whole, on cells; also called Dubca-mouse GCC.Luc
T2 sequence (looked up): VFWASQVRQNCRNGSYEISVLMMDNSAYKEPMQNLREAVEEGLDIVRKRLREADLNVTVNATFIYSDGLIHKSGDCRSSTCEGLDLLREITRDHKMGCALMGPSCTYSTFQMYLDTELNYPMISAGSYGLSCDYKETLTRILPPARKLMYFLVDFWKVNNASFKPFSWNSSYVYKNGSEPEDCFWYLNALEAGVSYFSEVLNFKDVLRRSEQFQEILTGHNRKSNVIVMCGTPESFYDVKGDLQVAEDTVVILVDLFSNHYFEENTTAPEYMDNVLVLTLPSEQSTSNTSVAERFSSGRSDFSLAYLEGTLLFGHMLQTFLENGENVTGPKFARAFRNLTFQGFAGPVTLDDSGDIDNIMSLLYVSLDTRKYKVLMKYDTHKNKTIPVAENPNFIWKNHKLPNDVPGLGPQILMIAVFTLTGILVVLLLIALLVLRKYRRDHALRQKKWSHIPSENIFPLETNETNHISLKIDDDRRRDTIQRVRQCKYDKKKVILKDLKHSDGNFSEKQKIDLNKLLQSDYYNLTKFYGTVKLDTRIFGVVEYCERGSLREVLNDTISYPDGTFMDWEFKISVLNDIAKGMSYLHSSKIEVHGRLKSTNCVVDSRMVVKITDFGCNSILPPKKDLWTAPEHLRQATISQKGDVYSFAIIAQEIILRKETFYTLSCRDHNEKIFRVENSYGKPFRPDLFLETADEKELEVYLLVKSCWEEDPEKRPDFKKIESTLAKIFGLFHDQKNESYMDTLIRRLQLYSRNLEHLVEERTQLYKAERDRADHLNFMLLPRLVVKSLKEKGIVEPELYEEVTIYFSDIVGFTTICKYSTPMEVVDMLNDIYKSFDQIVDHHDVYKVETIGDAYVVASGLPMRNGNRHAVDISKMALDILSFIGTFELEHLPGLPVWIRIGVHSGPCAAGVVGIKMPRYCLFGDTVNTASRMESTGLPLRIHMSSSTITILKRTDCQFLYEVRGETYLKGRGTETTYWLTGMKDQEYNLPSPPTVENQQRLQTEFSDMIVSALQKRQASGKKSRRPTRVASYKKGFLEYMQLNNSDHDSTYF
The assay can be described thus: flow cytometry on 293T-mouse GCC.Luc cells.

Assay [6] addresses T3, His-tagged human GUCY2C/Guanylyl cyclase C protein (ACRO GUC-H52H5) (human, UniProt P25092 24-430).
T3 construct: Bought protein; also called human GCC-his protein; human GCC-his; not shown: His tag
The assay can be described thus: ELISA, plate coated with human GCC-his protein at 1 µg/mL.

For assay [7], the target named is T4, His-tagged mouse GUCY2C/guanylyl cyclase C protein (ACRO GUC-M52H3) (mouse, UniProt Q3UWA6 20-433, limits assumed).
T4 construct: Bought protein; also called mouse GCC-his protein; mouse GCC-his; not shown: His tag
T4 sequence (looked up): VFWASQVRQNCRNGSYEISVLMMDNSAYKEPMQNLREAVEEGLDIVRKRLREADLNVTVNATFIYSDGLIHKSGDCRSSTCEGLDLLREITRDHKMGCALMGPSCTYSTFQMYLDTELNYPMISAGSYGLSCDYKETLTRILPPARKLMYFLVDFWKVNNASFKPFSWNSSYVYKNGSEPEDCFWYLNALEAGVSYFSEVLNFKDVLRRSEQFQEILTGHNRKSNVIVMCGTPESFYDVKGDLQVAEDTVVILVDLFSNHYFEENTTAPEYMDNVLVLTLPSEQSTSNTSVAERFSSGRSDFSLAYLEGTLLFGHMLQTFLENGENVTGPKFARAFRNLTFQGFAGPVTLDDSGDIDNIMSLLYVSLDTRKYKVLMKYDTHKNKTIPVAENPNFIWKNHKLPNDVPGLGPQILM
The assay can be described thus: ELISA, plate coated with mouse GCC-his protein at 1 µg/mL. A general note: An ELISA detects its analyte on a solid surface through an enzyme-linked reagent.

human GCC (guanylyl cyclase C, GUCY2C) on cells (human), sequence (P25092 24-1073): as the sequence (P25092 24-1073) above
T3 sequence (P25092 24-430 limits assumed): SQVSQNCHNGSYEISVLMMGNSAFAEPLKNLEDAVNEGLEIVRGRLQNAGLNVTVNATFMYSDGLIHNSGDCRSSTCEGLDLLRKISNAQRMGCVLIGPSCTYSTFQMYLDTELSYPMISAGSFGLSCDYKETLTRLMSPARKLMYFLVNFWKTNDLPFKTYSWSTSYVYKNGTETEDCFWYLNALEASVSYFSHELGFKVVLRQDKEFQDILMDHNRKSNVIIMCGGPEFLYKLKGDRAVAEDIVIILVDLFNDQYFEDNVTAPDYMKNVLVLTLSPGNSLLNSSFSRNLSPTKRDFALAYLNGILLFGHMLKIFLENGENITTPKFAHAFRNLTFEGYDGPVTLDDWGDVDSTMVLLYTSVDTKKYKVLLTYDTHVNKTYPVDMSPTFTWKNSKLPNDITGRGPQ

B1: 14C2 (anti-GCC rabbit monoclonal antibody, B cell clone supernatant) (antibody, V domains shown)
VH: QSLEESGGRLVTPGTPLTLTCTASGFSLSNYDMSWVRQAPGKGLEWIGTIEPDGSTWYASWAKGRLTISRTSTTVDLKMTSLTTEDTATYFCVRGAPDYSSNAFNLWGQGTLVTVSS
VL: DVVMTQTPSSVSEPVGGTVTIKCQASQSISSYLAWYQQKPGQPPKLLIYKASTLASGVSSQFRGSGSGTEFTLTISDLECADAATYYCQSTYAASNKLHFAFGGGTDVVVK
notes: Tested as native rabbit antibody in B cell clone supernatant; also called 14C2-B cells; clone 14C2
The molecule B1 returned a percent of cells bound (flow cytometry) in assay [1] of 99.2%. Besides, the binding result in assay [2] is listed as “no binding”.

B2: 25E2 (anti-GCC rabbit monoclonal antibody, B cell clone supernatant) (antibody, V domains shown)
VH: QSVEESGGRLVTPGTPLTLTCTVSGIDLNKHAMGWVRQAPTKGLEWIGTIYVSTNTAYASWAKGRFTISKTSSTTVDLKMTSLTTEDTATYFCARGGGSSYYTGELYFNLWGQGTLVTVSS
VL: AYDMTQTPASVEVAVGGTVSIKCQVSQSIGSWLAWYQQKPGQPPKLLIYSASTLASGVSSRFKGSGSGTEFTLTISDLACVDAATYYCQSYSSASTTAFGGGTEVVVR
Take B2: the percent of cells bound (flow cytometry) was determined as 95.1% in assay [3] and 95.4% in assay [1].

B3: PF0098-Rabbit IgG (antibody, V domains shown)
VH: QVQLQQPGAELVKPGASVKLSCKASGYTFTSYWMHWVKQRPGQGLEWIGEIKPSNGLTNYIEKFKNKATLTVDKSATTAYMQLSSLTAEDSAVYYCTRTITTTEGYWFFDVWGAGTTVTVSS
VL: DIVLTQSPASLAVSLGQRATISCRASESVDYYGTSLMQWYQQKPGQPPKLLIYAASNVESGVPARFSGSGSGTDFSLNIHPVEEDDIAMYFCQQTRKVYTFGGGTKLEIKG
notes: also called PF0098-Rabbit IgG antibody
The term EC50 denotes the concentration needed to bring the measured effect to its halfway point. High values mean a need for much substance, low ones an effect from little substance. On to B3, for which the EC50 in assay [4] came to 0.0254 nM; in assay [5], 0.284 nM; in assay [6] it was 0.671 nM; in assay [7] it was 0.899 nM.

B4: 48D5 (anti-GCC rabbit monoclonal antibody, B cell clone supernatant) (antibody, V domains shown)
VH: QSLEESGGRLVKPDETLTITCTVSGIDLSSNAISWVRQAPGEGLEYIGYIGTGGKSFYATWTKGRFTISKTSTTVDLKMTSLTNEDTAMYFCATGNTYLDLWGQGTLVTVSS
VL: AQVLTQTPSSVSAAVGGTVTINCQSSQSVYGADYLAWYQQKPGQPPKLLIYRASNLASGVPSRFRGSGSGTQFTLTISEVQCDDAATYYCQGTYISSDWLNPFGGGTEVVVK
Regarding B4, the percent of cells bound (flow cytometry) is 65.9% in assay [3] and 81.8% in assay [1].

B5: 21E1 (anti-GCC rabbit monoclonal antibody, B cell clone supernatant) (antibody, V domains shown)
VH: QSLEESGGRLVTPGTPLTLTCTVSGIDLSSYDMTWVRQAPGKGLEWIGSIGDDGNTYYATWAKGRFTISKTSTTVHLKMTSLTTEDTATYFCARGWSFCKSWGQGTLVTVSS
VL: AQVLTQTASPVSAAVGGTVTISCQSSQSVANNNLAWYQQKPGQPPSPLIYKASTLESGVPSRFSGSGSGTQFALTISGVQCDDAATYYCQGAYRSGIMAFGGGTEVVVR
In the case of B5, the percent of cells bound (flow cytometry) in assay [3] is 95.4%; in assay [1], 99.7%.

B6: 22G5 (anti-GCC rabbit monoclonal antibody, B cell clone supernatant) (antibody, V domains shown)
VH: QSVEESGGRLVTPGTPLTLTCTVSGIDLSSYAMTWVRQAPGEGLEWIGTINTISTAYYANWAKGRFTISKTSTTVDLKIASPTTEDTATYFCARDHGYYDVWGQGTLVTVSS
VL: AQVLTQTPSSVSAAVGGTVTINCQASQSVYKNNYLSWYQQKPGQPPRLLIYDASTLASGVPSRFKGSGSGTQFTLTISGVQCDDAATYYCLGEFSCSSGDCAAFGGGTEVVVK
As to B6, the percent of cells bound (flow cytometry) in assay [3] is 99.9%; in assay [1], 74.1%.

B7: 22G5-Rabbit IgG (antibody, V domains shown)
VH: B6 VH
VL: AQVLTQTPSSVSAAVGGTVTINCQASQSVYKNNYLSWYQQKPGQPPRLLIYDASTLASGVPSRFKGSGSGTQFTLTISGVQCDDAATYYCLGEFSCSSGDCAAFGGGTEVVVKG
notes: Recombinant rabbit IgG (IgG1k) expressed in HD CHO-S cells: 22G5 VH-Rabbit IgG CH1-CH2-CH3 and 22G5 VL-Rabbit IgG CL; also called 22G5-Rabbit IgG antibody; 22G5 antibody
B7: the EC50 in assay [4] amounted to 0.102 nM; in assay [5] it was 1.23 nM; in assay [6], 0.619 nM; in assay [7] it was 0.824 nM.
